This data set concerns the molecule itself. Put plainly: SEC; gel filtration of the purified protein on a Superdex 200 16/60 column; aerobic conditions; data not shown.

Several values for one entry are separate records, joined by “and”; a condition that tells them apart may be missing. Equal values may be shown once.

B1: IscR of Rhodobacter sphaeroides (His-tagged recombinant IscR) (natural protein, UniProt Q3J0R9 1-155, looked up)
chain: MKLSTKGRYAMVALVDLALAQKSGNELVSLAEVSKRQDISLPYLEQLFVKLRRAGLVEAVRGPGGGYKLARPAESIRVSEIMEAVEETVNAMHTGAGASGGVSGSRAQSLTNRLWEGLSAHVYVFLHQTRLSDIIKNEMRPCPAVPALFRVVDED
notes: IscR, Rhodobacter sphaeroides 2.4.1, locus RSP_0443 (KEGG), 155 amino acid residues; the coding region of iscR was amplified and cloned into pQE30; also called His-tagged IscR; RSP_0443; source: E. coli M15 (pQE30::iscR), overexpressed, purified (Ni-NTA)
By stoichiometry N is commonly meant the number of molecules, sites or subunits per partner or assembly. Take B1: the “stoichiometry N” value was 2 and 4.

For the origin of these results see paper PMC4618611, “IscR of Rhodobacter sphaeroides functions as repressor of genes for iron-sulfur metabolism and represents a new type of iron-sulfur-binding protein” (MicrobiologyOpen, 2015).
